{
  "source": "patent US11872268B2",
  "about": "“Safe and effective beta-lactamase dosing for microbiome protection” (Theriva Biologics, Inc., priority 2015, dated 2024)",
  "key": {"[1]": {"test": "Phase 1b/2a ileostomy study (Example 5): ceftriaxone plasma concentration", "format": "in vivo, human", "settings": "1 g IV with and without oral SYN-004 75 or 150 mg", "procedure": "(§1) This example evaluated the effects of two strengths of oral SYN-004 (75 mg or 150 mg) administered twice in six hours on the plasma pharmacokinetics (PK) and chyme concentrations of a single dose of ceftriaxone administered as an intravenous (IV) infusion (1 g infused over 30 minutes). Further, this example evaluated if SYN-004 was present in chyme, if there was absorption of SYN-004 into plasma, and the safety and tolerability of SYN-004 (75 mg or 150 mg) in combination with IV ceftriaxone.\nThis was a Phase 1, randomized, multi-center, open-label study. Ten otherwise healthy subjects with functioning ileostomies who were between the ages of 18 and 80 years, inclusive, were enrolled. […]\nPharmacokinetics: Serial blood (5 mL each) and chyme samples (2 mL minimum) were collected on Day 1 of Period 1 and Period 2. The following PK parameters of SYN-004 and ceftriaxone were determined from the plasma and chyme concentration-time data for all evaluable subjects using non-compartmental methods: maximum observed plasma concentration (Cmax), area under the concentration-time curve from time 0 to the last quantifiable concentration (AUCt), and time to reach Cmax (Tmax) as applicable. In addition, area under the concentration-time curve from time 0 to infinity (AUC∞) was calculated where determinable."}, "[2]": {"set-up": "species or system human", "settings": "in vivo", "procedure": "as §1\nThis was a Phase 1, randomized, multi-center, open-label study. Ten otherwise healthy subjects with functioning ileostomies who were between the ages of 18 and 80 years, inclusive, were enrolled. As an overview, in the first treatment period (Period 1) all subjects received an IV infusion of 1 gram (g) ceftriaxone. In the second treatment period (Period 2) all subjects received an IV infusion of 1 g ceftriaxone and 2 doses of either 75 mg or 150 mg of SYN-004, according to the randomization schedule, and administered 30 minutes before and 5.5 hours after the ceftriaxone infusion. Subjects were screened for study participation within 45 days prior to Check-in (Day −1), and the entire duration of the study may be up to 64 days (from Screening to the end-of-study visit).\nThe active dosage form of SYN-004 being administered was a hard gelatin, size 0, opaque white capsule containing delayed-release mini-pellets. Subjects randomized to Treatment AB received two oral doses of SYN-004 75 mg (1×75 mg capsule) twice in one day on Day 1 of Period 2. Subjects randomized to Treatment AC received two oral doses of SYN-004 150 mg (2×75 mg capsules) twice in one day on Day 1 of Period 2.\nSpecifically, in Period 1, all subjects received an IV infusion of 1 g ceftriaxone administered over 30 minutes on Day 1. In Period 2, subjects again received an IV infusion of 1 g ceftriaxone administered over 30 minutes on Day 1, as well as two oral doses of SYN-004 (75 mg or 150 mg) 30 minutes before and 5.5 hours after the IV infusion of 1 g ceftriaxone. All subjects received an infusion of ceftriaxone 1 g over 30 minutes in Period 1 and a second identical, time matched infusion in Period 2. The exact time of day of dosing for consecutive subjects may be staggered (±1 hour) to accommodate sample collection logistics; however, the time of day of ceftriaxone administration on Day 1 in Periods 1 and 2 were consistent for each subject.\nWith respect to meals and fluid intake, on Day 1 in each period, subjects received a small non-fatty meal approximately 1 hour (7:00 AM) prior to administration of ceftriaxone and again 5 hours after the start of infusion (1:00 PM). Subjects received full meals at approximately 2 and 7.5 hours after the start of the infusion (10:00 AM and 3:30 PM), respectively. In order to generate sufficient chyme output, subjects drank 8 ounces of water or apple juice at the start of the infusion and at 0.5, 1, and 1.5 hours after the start of the infusion (i.e., every half hour between 8:00 AM and 9:30 AM); thereafter, subjects were encouraged to drink 8 ounces of water or apple juice hourly between 2 and 7 hours after the start of the infusion (10:00 AM to 3:00 PM).\nOn Day 1, Period 1, serial blood and chyme samples were collected from approximately 30 minutes pre-dose through approximately 7 hours for serial blood and 8.5 for chyme after the start of infusion for determination of ceftriaxone concentration. […]"}, "SYN-004": {"target": "SYN-004 (Bacillus licheniformis, UniProt P00808, D288N)", "sequence (P00808 44-307 D288N)": "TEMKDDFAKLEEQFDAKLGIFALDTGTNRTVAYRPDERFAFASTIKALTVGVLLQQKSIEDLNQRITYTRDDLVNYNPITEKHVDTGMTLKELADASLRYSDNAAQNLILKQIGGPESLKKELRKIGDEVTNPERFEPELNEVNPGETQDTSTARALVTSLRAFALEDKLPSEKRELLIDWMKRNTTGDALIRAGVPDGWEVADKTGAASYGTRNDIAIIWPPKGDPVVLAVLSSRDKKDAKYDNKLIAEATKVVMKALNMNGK", "test": "SYN-004 activity in human intestinal chyme in the presence of beta-lactamase inhibitor (ceftriaxone by LC/MS-MS)", "format": "biochemical", "settings": "20 mg/ml Sulbactam, 8 ug/ml SYN-004", "procedure": "Ceftriaxone (at 3 ug/ml or 1500 ug/ml) was mixed with human intestinal chyme alone, or with chyme plus SYN-004 (8 ug/ml) or with chyme plus the beta-lactamase inhibitor sulbactam, (20 mg/ml) or chyme plus both and then the samples were flash frozen. The flash frozen samples were thawed on ice and sulbactam was added to some samples, the protein was precipitated with acetonitrile and the samples were analyzed for ceftriaxone concentration by LC/MS-MS. The table below provides results from triplicate samples."}, "[3]": {"settings": "human, in vivo", "procedure": "(§2) A Phase 1, double blind, randomized, placebo controlled study was carried out to assess the safety, tolerability, and PK of SYN-004 in healthy adult subjects. Specifically, multiple doses of oral SYN-004 capsules (75 mg, 150 mg, or 300 mg) were administered to the subjects at 4 doses per day for 7 days. Blood samples were collected for PK evaluation and determination of anti-SYN-004 antibodies. A total of 24 healthy adult subjects were enrolled in the study with 6 active and 2 placebo subjects per cohort."}, "[4]": {"set-up": "species or system human", "settings": "in vivo, po", "procedure": "as §2"}, "[5]": {"settings": "human, in vivo, po", "procedure": "A Phase 1, double blind, placebo controlled study was carried out to assess the safety, tolerability, and pharmacokinetics (PK) of SYN-004 in healthy adult subjects. Specifically, a single dose of oral SYN-004 capsule (75 mg, 150 mg, 300 mg, 600 mg, or 750 mg) was administered to subjects. Blood samples were collected for PK evaluation and determination of anti-SYN-004 antibodies. A total of 40 healthy adult subjects were enrolled in the study with 6 active and 2 placebo subjects per cohort."}},
  "note": "Like-named read-outs stand apart in the source and are kept apart here.",
  "data": [
    {"compound": "CO/N=C(\\C(=O)N[C@@H]1C(=O)N2C(C(=O)O)=C(CSc3nc(=O)c(=O)[nH]n3C)CS[C@H]12)c1csc(N)n1", "note": "[Ceftriaxone]", "values": [
      {"measurement": "plasma concentration of ceftriaxone, Period 1 versus Period 2", "setting": "[1]", "result": "no significant difference"},
      {"measurement": "time ceftriaxone appeared in the chyme", "setting": "[2]; human", "result": "1.5 to 2.5", "unit": "h"},
      {"measurement": "time of second peak of ceftriaxone in chyme", "setting": "[2]; human", "result": "6 to 8", "unit": "h"},
      {"measurement": "peak ceftriaxone in chyme", "setting": "[2]; human, iv", "result": "115 to 1400", "unit": "µg/mL"}
    ]},
    {"compound": "CC1(C)[C@H](C(=O)O)N2C(=O)C[C@H]2S1(=O)=O", "note": "[Sulbactam, sulbactam]", "values": [
      {"measurement": "inhibition of SYN-004 activity in intestinal chyme", "setting": "SYN-004", "result": "did not substantially inhibit SYN-004 activity"}
    ]},
    {"compound": "SYN-004: beta-lactamase with the amino acid sequence of SEQ ID NO: 1; given orally as delayed-release capsule of enteric-coated pellets", "values": [
      {"measurement": "systemic bioavailability", "setting": "[3]", "result": "not systemically bioavailable"},
      {"measurement": "anti-SYN-004 antibodies", "setting": "[4]", "result": "No anti-SYN-004 antibodies were detected"},
      {"measurement": "degradation of ceftriaxone in chyme", "setting": "[2]", "result": "effectively degraded ceftriaxone"},
      {"measurement": "time measurable SYN-004 began to be detectable in the chyme", "setting": "[2]", "result": 5.5, "unit": "h"},
      {"measurement": "systemic bioavailability", "setting": "[5]", "result": "not systemically bioavailable"},
      {"measurement": "Cmax (plasma)", "setting": "[5]; 750 mg", "result": 1.4, "unit": "ng/mL"},
      {"measurement": "Tmax (plasma)", "setting": "[5]; 750 mg", "result": "1 to 4", "unit": "h"}
    ]}
  ]
}
